Measurements reported in the DeepSol protein solubility set.

Test: soluble on expression in E. coli; label from the status in PepcDB or PDB records

Row | Sequence | soluble on expression in E. coli
1 | MAGRVPRLTGHCSILSRTYGHSLMDLAALRFYIAPGKKPVIAAGMPWYMALFGRDSLITSYQCCFIAPDIAFNTLRNLANLQGKEYNYFKDEEPGKILHELRFGEKTLLGKKPYSPYFGSADTCQLFLILLHEVFKWTGNKEFVNEFKEPALKALYWIDNFGDMDGDGYVEYKKRSKEGLDNHCWKDSGTSMIFSDSRLAEAPIATVEFQGYIYDAKIRLAELAEEVWDDPSFAEELRNQAKELKRRFNRDFWIEDRGGYFALGLDKNKEKIDSMTSNMGHLLWSGIVEDDRAGIIVKQLMSRDLYNGWGIRTLSSHDRGYNPIEYHNGTVWPHDNSLIAEGFIKYGYRDEANRIITNLLEASQYFDSRFPEVFAGYQRTEVDFPVSYPTSSIPQAWAAGASMLFLRLILGLEPDRKSQSIKIDPYLPQVIEDICVENIRLFNKKFSVFAGKGRSEIKLSEMAGDPLEHHHHHH | not soluble
2 | MAHHHHHHHRSEQIAAVRRMVEAYNTGKTDDVADYIHPEYMNPGTLEFTSLRGPELFAINVAWVKKTFSEEARLEEVGIEERADWVRARLVLYGRHVGEMVGMAPTGRLFSGEQIHLLHFVDGKIHHHRDWPDYQGTYRQLGEPWPETEHRRP | soluble
3 | MAHHHHHHMAASSPLGMANYVTGDPLGVAGQEAGKGAGALLAAVQQCSAELSHEFGDGVALMTGEPAAATTSSHASPLSPEQRVALSAGAVTCLSVASLPGTTDTAVAVVGTTVGTVALLLIEGSRAVYKVAECSLMEWSSGAITAQDAIVDVAFSMDPAGRPEFVGAASAGCVVVVDVQLLYRPSGNSSRSTDEEVGDTATDAPAAVVHRAEWHQATELWSNSALRAKAVEALERSSAQLVRHCCSDVFACSFVEADVVRILAPQRLQAAVAIDVALVVVLSSGALHYVERVVEGGSVRLLAEHHWQRLAKGAAFTSHASAATQGADSAAENDFSADGTSVHLVTDSRAVPHVIYRYRLSPYHVQACQDGGQTASGGGGNYSMAALALPCATESVTHVCDAHLHFSEKDAACHVVLAGTQRVPVGKVGYMSVASRVGSLGHAQQQQHAGVAGCRTLAWWAVVQNAVLPRQTFDRSALERQALQHQHQQQQQQLHDGHAFPPFRTNAGSPPFTVHVQSNTMALPCGLGTCPASALTSPATSSPATAGAGVASGVSAVGPGQGSGFAAAFMLTDILVLASGHELYVGDLRDVPRSAKTLPVPRPLRSFGSVVEGITAGPYMDARAVLVATGSRVAPVSLV | not soluble
4 | MAHHHHHHMAATKLGINGFGRIGRLVFRAAFGRKDIEVVAINDPFMDLNHLCYLLKYDSVHGQFPCEVTHADGFLLIGEKKVSVFAEKDPSQIPWGKCQVDVVCESTGVFLTKELASSHLKGGAKKVIMSAPPKDDTPIYVMGINHHQYDTKQLIVSNASCTTNCLAPLAKVINDRFGIVEGLMTTVHASTANQLVVDGPSKGGKDWRAGRCALSNIIPASTGAAKAVGKVLPELNGKLTGVAFRVPIGTVSVVDLVCRLQKPAKYEEVALEIKKAAEGPLKGILGYTEDEVVSQDFVHDNRSSIFDMKAGLALNDNFFKLVSWYDNEWGYSNRVLDLAVHITTS | soluble
5 | MAHHHHHHMAATNSPTEEEVVMRYQQLRQECLAMDSRISELENELHEHQLVADTLKPLNGDRRCHRLVGGALIERTVADILPELVENIKGIEEALAQLNKMLTEKQAAMDEYARKHGVTVAQRQGQTPAGGGGANNDEGEKKPMGADSRGVLV | soluble
6 | MAHHHHHHMADATLLHHLIEVLPKAELHVHIEGTLSPELLFELAKRNGVQIPYKTVEEVRVAYNFTDLQSFLDLYYEGMSVLITEDDFEDLAYAYTRVMHESRVVHAEPFFDPQGHLCRGVTFRVLYDGLMRGFRRGEAEFGVSVMLIFSFLRHLSEEECLALVLDDMHPDNGQYIRELFVAKAFVAVGLDSSELGHPPEKFARLYRYCREELKVPFLVAHAGEEGPPEYMRDAMSMLKVDRIDHGVAARLDQALCKDLREKRIPLTVCPTSNVALKVFQDRATCGAVVMDLILTEGLCVTINSDDPAYFGGDIRESFRILAETGRLTPATLKQLVLNSFSSSFIADDSKRAYKERVEKVFKDVCGGTYE | soluble
7 | MAHHHHHHMALTLSPVEAALATCVALRYFYAHALHLSAATRVAHSVGPAPHDLSDRFTANLPFEDYLQWGLESIYSDASSAEAHLCLEQLSSNLRDAIMTHANNMEFRFLDEAPSLFDTVLLTSLYLVRSRVLRMPLLSSTSNKPDSNCSVFGPGLDALNHCSTSPAAVVVVSAARRSVVVRARRRINRGEEITLDYRLTGSGRGVSRGHPSHNGSLLRGDVICMNDDWAARYLMN | not soluble
8 | MAHHHHHHMANGVTANSMRVSVKAPDLGAFPLDHYRECKSEIEEYYTCLRSNDYVTPMCREQVRAYLQCRMDRGLMKPADIEGFGIPETEFVPMRQHRADIRQQWLRQKMNQVTAVWESYRRDDLNVPDGYERPRGSDSGGRPQPLPGETNKT | not soluble
9 | MAHHHHHHMASPASTNPAHDHFETFVQAQLCQDVLSSFQGLCRALGVESGGGLSQYHKIKAQLNYWSAKSLWAKLDKRASQPVYQQGQACTNTKCLVVGAGPCGLRAAVELALLGARVVLVEKRIKFSRHNVLHLWPFTIHDLRALGAKKFYGRFCTGTLDHISIRQLQLLLLKVALLLGVEIHWGVKFTGLQPPPRKGSGWRAQLQPNPPAQLASYEFDVLISAAGGKFVPEGFTIREMRGKLAIGITANFVNGRTVEETQVPEISGVARIYNQKFFQSLLKATGIDLENIVYYKDETHYFVMTAKKQCLLRLGVLRQDLSETDQLLGKANVVPEALQRFARAAADFATHGKLGKLEFAQDARGRPDVAAFDFTSMMRAESSARVQEKHGARLLLGLVGDCLVEPFWPLGTGVARGFLAAFDAAWMVKRWAEGAGPLEVLAERESLYQLLSQTSPENMHRNVAQYGLDPATRYPNLNLRAVTPNQVQDLYDMMDKE | soluble
10 | MAHHHHHHMATDLDSFSTYIDHLILLLAARFHAPLEVSVEELLPSSMNLSAEAQCPWELVACSVQQALRTPQTAQERLLMRHLDVHHFSASVCRERARYMQWKLQECRRRRGDKQQLVQSPAVPSAARANTSSTVAASATAAGQPCDVACTSLHNDVCSLYKLVLQSLPSTLGGTESDDDEEDAQAPTTSVQSLASASEPSSFERVHEVFMRTPAEQERDELVARARDEFLSQVQALQSVYYEKYHRWMDVPASVLDPPPASSKQPASTDGAAAALESAAPQRGSESERAALLEALGAAAAPPPRHRKQANHASSSGAADWTEKPHTLASMLHQVQLRRPLRPSAVSDDVLESLYRARAETEEAPKNLCVASGLRSCPPAASTSATPSFAGGCADTITAEAVAVAPSSSQPSSSVAAVRKDTVPPASRRGRWQIVEYDDDDDGEG | not soluble
11 | MAHHHHHHMAVPHGMLISRNDITPDSLVDVPGDRKIVEQISNTMANSSLFKMEKEDHTLANLLRMKLHESPFVQIAGYRVPHPTKHNVELRVQTASNGTDAPVPAPKKALQDAVDGCLKDLEVFEEQLRREAQLKGLEASPS | not soluble
12 | MAHHHHHHMCFVARHKPALISGEAVVWLMERITGEELDVRSLENLCSAVVHLPVAVRTALRQELMEFVAFLSLQARELLQQVPAAQGGLSGCSDADAIQYFVSHVLELTVMLRTYPDLQWPPEFLAAVDACAASVEPLQEALLSAESSPVGLMVRLLEAPTGECKRVGLAMLREAANQCQSFATLQTFRFLLLMGDHGLQDVGTSRYLRDQFAKTAADVPPVQLSVALRCLGVATAGAATQGASGAGELRATVEGTAGNADLDDELERERLDAFLQFCVEVSRKHLSQGAPLRCVLATTESLHRLGCRDTAFFADVAAYIAAKHAAAPAERESADTATAVCAALGEDLLGEYPAVREFLLDVAQRGVRGESAMSPTQWMNLHDPSNALTPLTEQQQESWDIVEEMVRTRSDDVDALVRLAEKYMELLPFARPDDHKYFFGVCEEKVLKQDKLLKKCLDTIVDCGAVSRLSAQTIASILHSLAAIRFEYFASVKRFTSSISDEQWLLMEAAPLVQILTGMDKLSLRTPAVLRRIGGRLTEICRFLTPLDTAQAIHALQALGHNDAKLLGKLAAHAAALARRFDEASMAVLFSTPSIHRLMSTPEVARPLLLQASAKIQSQHRREKISAWVRRSGLPRELIDESTRRLQVTSGDARSSEVHLRLT | not soluble
13 | MAHHHHHHMDKDKDKSKNTPLLYQDTMNDLGDGLQNMDTLRLNRNGNTGNGNKNKTNGSKGVKGEYEKKKETNGHDDYVKESLNRMLESHIDQYFKGLDYYKNNPKCKIDPKIHLHGSEEIENYIVKEKIFVTTYFQYIDVYENAINVDEDLEKEEIVYVEVPKYVTKYKPKIVTNIIEKTIEIPSGEEIKQPKYNTVNVPYVIPNIVENEILVVLKKIIQPEIEITNEELEIEVEKYIPRLVPVNVYVPRYFGISAKAKGEPEESVRYVDLTQDQIDELMKELNPHLNELKVFNETQLKRMDEYMRESQMQARAHNFEPPQPQLITYDESGHCQSYDYSEFHRFKETCIKELTH | not soluble
14 | MAHHHHHHMDQLVYYVMVQHNSIQPIIVRQPPTVVIHTQPNPPITLDLPPQNIILKNDEPQPIIVRQQNPNIIVQKSGNEFSENPNYALSLNQQMKEITSMTSPSAAIPHGGIAQVGIPHVTNEPLLGVTTPEMNELTDPAYIYSNQYITTQNKSQPMNNMYFTSVPLNNDGSYSPYNMTLYANKREDYTKSTPSKY | not soluble
15 | MAHHHHHHMDSIVLPGEALGSCDAYVSGENTYSLQKEVRSAILGRRQLTTNGDGKQVISVANTKEFIPLPQVGDLVTCKVYRVTFNLIYCNIILLNSKAVRNSFRAFINKSDIHVYEGELGDNFECFKQGDIIRAKVLSVAQHGSYKLSTVGSDLGVILALSDGGERKRGKKQKKTKKQKKKKKKKEP | not soluble
16 | MAHHHHHHMDSLYFIGKAQFHQLATHISLYHEDMSDGYKHLSTDAVMAVGLKPHKFTYWNVPMMSGYLGKTVPLDIHGGYVMIDEEKVMPMATSYGMLRYALLTSAVRAKEGGRWRYDFMTMNSTLAIGTAAGLGLLSFGRQRIGWIRRHPIGSVMASFVACLTTTVIARQGIKALGIGIVQAQNSHKRALNCLHCVDCLEDVNTYTLKQIEELKAQQIPQQAGMPPPPEEYVRRFKKGVEMQCRLLETDMEEVRLIRKWAGASLCDVHQHLRDDPMGYKEPHGLVLLASDRARAAERPPLATMPDDKKGIRPAKS | not soluble
17 | MAHHHHHHMEAKFLKLRQEREEQRRHRSKKTGAITLQRQQYEAEAELLEAEVMQLLQEGNVTESQQRIDALRTLVQDTSNSISLTAHEMAKANVILARLQQRVDEKCSGAAPKKFKFSSRLKAKPTSDAEPATPSFSPTGTSDTNEATATATVPIAGTVSSTNGFGNVYGPSTGTDLFISHSKGVFINGCADCAIYCLPIAGSAFLSNCTNCRVYVACHQLRLKGCTNLDLYVWCASTPIIEECDAMRFGPYRCWVGLLSSCTEDGKTYATHAEWVSRVGEIEDTARTEQNYVKVDDFQWVKKRASPHWCVLAREEERASTTVFGPATLPSSSTAHSTVAADH | not soluble
18 | MAHHHHHHMEDAFAGSCVQSLFEPKADLSLCVNKSIKLFLKEVPIPPADSVDRADEQNSTDAKKEQRESALSENLSLLNGYAYFNRIKSNINLLHTELHGIKRDFLFQKKQTKKNIQKLKIVRKQNKIYQSVLQEIKKDRRRKETYELLCTEIQKLEEVNYLNKKQQMEKRDIEDLQQKMKDIENAIRINDENIQRTIQQISDIVSTNLQP | not soluble
19 | MAHHHHHHMEGVSNILSIAGSDSCGGAGIQADIKTAMGLGCHCCTALVVLTAQNTKEVKRIVEIEEAFIVDQLDSIFADVTIDVVKLGVLYSKKIISLVSQYIVQMNKKRGKKLLVVFDPVFVSSSGCLLVENLEYIKFALDLICPISCIITPNFYECKVILQALDCQMDLSKANMTELCKLVTRMLDINACLLKSCNVGENSAEENEVYAVDHLCIRKVGSIPEGEVIQRDAGELGQSAPGGVTYLYDVYKLRSKRKPGVDVHGTGCTLSTAIACYLAKKHNILQSCIESKKYIYNCIRYAYPFGSKSQGLNHLKASQELPTFTDLEVIPIVQDSP | soluble
